Data reported in PMC9637774.
Where a chain is given by its changes, count along the chain named.

Key:
[1] = target: T1, Dicer-1 (Dcr-1);Loqs-PB (Loquacious isoform PB) (Drosophila melanogaster;Drosophila …, UniProt Q9VCU9;Q9VJY9 1-2249;1-465, |); experiment: cryo-EM structure
[2] = target: T1, Dicer-1 (Dcr-1);Loqs-PB (Loquacious …); experiment: competition
[3] = target: T1, Dicer-1 (Dcr-1);Loqs-PB (Loquacious …); experiment: cryo-EM structure; remark: listed apart in the source
[4] = target: T1, Dicer-1 (Dcr-1);Loqs-PB (Loquacious …); experiment: cryo-EM structure; remark: listed apart in the source

T1 sequence (Q9VCU9 whole entry, chain 1 of 2, canonical isoform): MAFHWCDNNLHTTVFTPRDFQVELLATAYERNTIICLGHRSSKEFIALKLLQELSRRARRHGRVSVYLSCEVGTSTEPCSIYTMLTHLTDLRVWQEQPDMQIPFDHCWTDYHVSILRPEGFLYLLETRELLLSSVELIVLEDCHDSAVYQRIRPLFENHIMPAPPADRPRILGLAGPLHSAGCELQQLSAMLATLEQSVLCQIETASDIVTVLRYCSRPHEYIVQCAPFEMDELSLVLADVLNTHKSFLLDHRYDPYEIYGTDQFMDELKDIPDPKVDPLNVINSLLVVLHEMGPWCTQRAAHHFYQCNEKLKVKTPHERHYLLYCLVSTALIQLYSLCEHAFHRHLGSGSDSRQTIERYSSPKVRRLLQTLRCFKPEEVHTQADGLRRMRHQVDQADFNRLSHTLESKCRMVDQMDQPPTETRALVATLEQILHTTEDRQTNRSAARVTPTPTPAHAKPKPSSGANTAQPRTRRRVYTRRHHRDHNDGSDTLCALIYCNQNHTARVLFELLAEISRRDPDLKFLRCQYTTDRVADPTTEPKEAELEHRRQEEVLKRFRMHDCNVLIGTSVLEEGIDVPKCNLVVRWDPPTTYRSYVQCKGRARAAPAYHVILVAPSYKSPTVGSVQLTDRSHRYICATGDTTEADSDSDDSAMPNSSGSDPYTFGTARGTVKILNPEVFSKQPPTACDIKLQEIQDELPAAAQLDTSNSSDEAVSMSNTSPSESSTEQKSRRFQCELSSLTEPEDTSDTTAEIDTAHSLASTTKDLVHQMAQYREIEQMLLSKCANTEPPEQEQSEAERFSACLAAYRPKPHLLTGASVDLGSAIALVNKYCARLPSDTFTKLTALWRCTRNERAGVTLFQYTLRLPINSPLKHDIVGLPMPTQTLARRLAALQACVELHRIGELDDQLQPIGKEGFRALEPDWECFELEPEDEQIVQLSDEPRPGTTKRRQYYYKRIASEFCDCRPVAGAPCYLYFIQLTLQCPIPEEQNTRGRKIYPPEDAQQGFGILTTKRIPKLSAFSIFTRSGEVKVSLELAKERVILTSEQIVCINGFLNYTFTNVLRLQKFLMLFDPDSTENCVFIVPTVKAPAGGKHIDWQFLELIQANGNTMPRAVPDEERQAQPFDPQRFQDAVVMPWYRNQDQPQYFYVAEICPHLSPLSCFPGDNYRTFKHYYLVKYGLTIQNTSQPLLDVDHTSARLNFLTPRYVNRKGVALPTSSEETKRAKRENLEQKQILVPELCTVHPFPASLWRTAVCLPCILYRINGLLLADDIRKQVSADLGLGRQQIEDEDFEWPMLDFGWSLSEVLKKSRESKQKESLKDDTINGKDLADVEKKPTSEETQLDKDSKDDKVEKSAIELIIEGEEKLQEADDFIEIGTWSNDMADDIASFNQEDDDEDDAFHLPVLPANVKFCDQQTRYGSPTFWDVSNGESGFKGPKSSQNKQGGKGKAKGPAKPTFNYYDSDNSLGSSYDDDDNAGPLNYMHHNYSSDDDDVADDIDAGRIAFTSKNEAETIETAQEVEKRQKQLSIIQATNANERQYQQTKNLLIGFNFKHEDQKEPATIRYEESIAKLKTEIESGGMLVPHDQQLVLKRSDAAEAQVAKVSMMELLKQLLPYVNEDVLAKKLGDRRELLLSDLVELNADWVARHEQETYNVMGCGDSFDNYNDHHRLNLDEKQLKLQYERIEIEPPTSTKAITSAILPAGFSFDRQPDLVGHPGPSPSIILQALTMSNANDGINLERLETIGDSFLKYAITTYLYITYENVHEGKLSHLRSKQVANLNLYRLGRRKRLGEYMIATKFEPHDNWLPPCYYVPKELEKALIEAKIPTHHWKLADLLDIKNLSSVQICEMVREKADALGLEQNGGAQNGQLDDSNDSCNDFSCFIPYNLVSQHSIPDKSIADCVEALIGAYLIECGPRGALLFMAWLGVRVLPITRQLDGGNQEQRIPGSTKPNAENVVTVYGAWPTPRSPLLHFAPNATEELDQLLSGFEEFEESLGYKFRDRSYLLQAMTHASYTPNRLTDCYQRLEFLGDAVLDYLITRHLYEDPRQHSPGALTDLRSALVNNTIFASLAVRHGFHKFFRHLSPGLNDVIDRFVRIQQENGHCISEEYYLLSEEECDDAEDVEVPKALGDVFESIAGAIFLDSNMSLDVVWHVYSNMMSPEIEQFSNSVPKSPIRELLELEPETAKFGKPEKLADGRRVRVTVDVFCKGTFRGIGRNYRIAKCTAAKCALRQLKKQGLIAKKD
T1 sequence (Q9VJY9 whole entry, chain 2 of 2, canonical isoform): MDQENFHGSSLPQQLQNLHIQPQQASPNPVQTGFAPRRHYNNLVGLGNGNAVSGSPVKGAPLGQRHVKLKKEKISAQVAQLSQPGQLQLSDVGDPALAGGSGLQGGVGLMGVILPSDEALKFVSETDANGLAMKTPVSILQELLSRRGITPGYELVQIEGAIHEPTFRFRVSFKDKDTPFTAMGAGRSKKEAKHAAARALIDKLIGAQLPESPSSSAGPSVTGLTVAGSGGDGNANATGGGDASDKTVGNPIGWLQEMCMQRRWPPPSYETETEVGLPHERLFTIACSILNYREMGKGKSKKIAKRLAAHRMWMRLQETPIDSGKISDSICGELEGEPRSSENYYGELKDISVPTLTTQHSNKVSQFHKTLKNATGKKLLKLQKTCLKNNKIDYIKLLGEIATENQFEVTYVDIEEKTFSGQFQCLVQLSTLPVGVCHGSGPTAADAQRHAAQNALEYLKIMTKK

B1: model pre-miRNA (structured_RNA)
RNA: UGAGGUAGUAGGUUGUAUAGUAGUAAUUACACAUCAUACUAUACAACCUACUACCUCUCU
modifications: 5' phosphate
[1]
  binding result: binds

B2: pre-let-7 (structured_RNA)
RNA: B1 RNA with C47U, C48G, A50G, C54G, C57U
modifications: 5' phosphate
[2]
  binding result: binds

B3: nicked model pre-miRNA (5' arm cleaved) (structured_RNA)
RNA 1: UGAGGUAGUAGGUUGUAUAGUA
RNA 2: GUAAUUACACAUCAUACUAUACAACCUACUACCUCUCU
modifications: 5' phosphate
[3]
  binding result: binds

B4: model miRNA/miRNA* duplex (dsRNA)
RNA 1: UGAGGUAGUAGGUUGUAUAGUA
RNA 2: CUAUACAACCUACUACCUCUCU
modifications: 5' phosphates
[4]
  binding result: binds
